In patent US20080242608A1 (published 2008):

B1: Endogenous FOXO3 (293T cells) (other, UniProt O43524 1-673, looked up)
chain: MAEAPASPAPLSPLEVELDPEFEPQSRPRSCTWPLQRPELQASPAKPSGETAADSMIPEEEDDEDDEDGGGRAGSAMAIGGGGGSGTLGSGLLLEDSARVLAPGGQDPGSGPATAAGGLSGGTQALLQPQQPLPPPQPGAAGGSGQPRKCSSRRNAWGNLSYADLITRAIESSPDKRLTLSQIYEWMVRCVPYFKDKGDSNSSAGWKNSIRHNLSLHSRFMRVQNEGTGKSSWWIINPDGGKSGKAPRRRAVSMDNSNKYTKSRGRAAKKKAALQTAPESADDSPSQLSKWPGSPTSRSSDELDAWTDFRSRTNSNASTVSGRLSPIMASTELDEVQDDDAPLSPMLYSSSASLSPSVSKPCTVELPRLTDMAGTMNLNDGLTENLMDDLLDNITLPPSQPSPTGGLMQRSSSFPYTTKGSGLGSPTSSFNSTVFGPSSLNSLRQSPMQTIQENKPATFSSMSHYGNQTLQDLLTSDSLSHSDVMMTQSDPLMSQASTAVSAQNSRRNVMLRNDPMMSFAAQPNQGSLVNQNLLHHQHQTQGALGGSRALSNSVSNMGLSESSSLGSAKHQQQSPVSQSMQTLSDSLSGSSLYSTSANLPVMGHEKFPSDLDLDMFNGSLECDMESIIRSELMDADGLDFNFDSLISTQNVVGLNVGNFTGAKQASSQSWVPG
B2: Endogenous MST1 (293T cells) (enzyme, UniProt Q13043 1-487, looked up)
chain: METVQLRNPPRRQLKKLDEDSLTKQPEEVFDVLEKLGEGSYGSVYKAIHKETGQIVAIKQVPVESDLQEIIKEISIMQQCDSPHVVKYYGSYFKNTDLWIVMEYCGAGSVSDIIRLRNKTLTEDEIATILQSTLKGLEYLHFMRKIHRDIKAGNILLNTEGHAKLADFGVAGQLTDTMAKRNTVIGTPFWMAPEVIQEIGYNCVADIWSLGITAIEMAEGKPPYADIHPMRAIFMIPTNPPPTFRKPELWSDNFTDFVKQCLVKSPEQRATATQLLQHPFVRSAKGVSILRDLINEAMDVKLKRQESQQREVDQDDEENSEEDEMDSGTMVRAVGDEMGTVRVASTMTDGANTMIEHDDTLPSQLGTMVINAEDEEEEGTMKRRDETMQPAKPSFLEYFEQKEKENQINSFGKSVPGPLKNSSDWKIPQDGDYEFLKSWTVEDLQKRLLALDPMMEQEIEEIRQKYQSKRQPILDAIEAKKRRQQNF

How the values were obtained:
[1] = biological target: T1, protein kinase MLK3 (endogenous, 293T cells) (UniProt Q16584 1-847); assay: co-IP from 293T lysates with rabbit FOXO3 antibody, MLK3 immunoblot
T1 construct: Negative control in the co-immunoprecipitation of endogenous FOXO3

[2] = biological target: B1; assay: co-IP from 293T lysates with rabbit FOXO3 antibody, MST1 immunoblot

T1 sequence (Q16584 whole entry): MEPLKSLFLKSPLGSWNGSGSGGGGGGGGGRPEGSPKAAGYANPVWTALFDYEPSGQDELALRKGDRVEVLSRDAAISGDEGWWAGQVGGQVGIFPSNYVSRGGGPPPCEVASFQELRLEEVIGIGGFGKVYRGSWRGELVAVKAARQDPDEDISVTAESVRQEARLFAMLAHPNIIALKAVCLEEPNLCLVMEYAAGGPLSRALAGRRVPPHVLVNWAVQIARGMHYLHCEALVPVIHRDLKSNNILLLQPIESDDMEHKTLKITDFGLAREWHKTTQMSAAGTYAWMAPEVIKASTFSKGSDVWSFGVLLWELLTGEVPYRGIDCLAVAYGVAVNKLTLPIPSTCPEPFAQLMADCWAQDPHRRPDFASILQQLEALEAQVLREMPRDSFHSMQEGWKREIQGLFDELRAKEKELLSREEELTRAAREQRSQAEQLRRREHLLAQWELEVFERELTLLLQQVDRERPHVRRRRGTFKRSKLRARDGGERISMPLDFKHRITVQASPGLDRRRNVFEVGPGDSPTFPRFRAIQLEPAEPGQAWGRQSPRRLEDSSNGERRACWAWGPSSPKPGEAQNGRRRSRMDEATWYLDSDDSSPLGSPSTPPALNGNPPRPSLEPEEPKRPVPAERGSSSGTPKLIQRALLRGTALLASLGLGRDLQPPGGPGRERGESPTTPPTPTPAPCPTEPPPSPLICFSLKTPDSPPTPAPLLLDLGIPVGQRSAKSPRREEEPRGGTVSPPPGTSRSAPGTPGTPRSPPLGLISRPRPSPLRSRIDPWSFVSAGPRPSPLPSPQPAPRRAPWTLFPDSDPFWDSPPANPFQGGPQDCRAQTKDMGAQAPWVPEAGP

binding result [1] | binding result [2] | Binder
no binding |  | B1
 | binds | B2
